Experimental findings from the supplement of paper PMC7877785 are described below.

A short description of this data set: self-splicing fitness, log relative to wild type (ln ratio); higher = more splicing; Tetrahymena group I intron in knt gene, E. coli kanamycin selection, DiMSum; sequences stand for … in CUCUCU…GGAGGGAAAAGUUAUCAGGCAUGCACCUGGUAGCUAGUCUUUAAACCAAUAGAUUGCAUCGGUUUAAAAGGCAAGACCGUCAAAUUGCGGGAAAGGGGUCAACAGCCGUUCAGUACCAAGUCUCAGGGGAAACUUUGAGAUGGCCUUGCAAAGGGUAUGGUAAUAAGCUGACGGACAUGGUCCUAACCACGCAGCCAAGUCCUAAGUCAACAGAUCUUCUGUUGAUAUGGAUGCAGUUCACAGACUAAAUGUCGGUCGGGGAAGAUGUAUUCUUCUCAUAAGAUAUAGUCGGACCUCUCCUUAAUGGGAGCUAGCGGAUGAAGUGAUGCAACACUGGAGCCGCUGGGAACUAAUUUGUAUGCGAAAGUAUAUUGAUUAGUUUUGGAGUACUCGUGGUCG
In short, it runs like this:
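Colonies from six replicate transformations of E. coli BL21(DE3) were pooled and amplicon-sequenced on an Illumina HiSeq 2500. The library placed an intron with all eight P1ex-region nucleotides randomised inside the knt kanamycin-resistance gene on pET-22b(+), and cells grew overnight at 37°C or 30°C on LB agar with or without 25 μg/mL kanamycin (plus 100 μg/mL carbenicillin, 50 μM IPTG, 0.2% rhamnose). Fitness is the DiMSum error-weighted combination of wild-type-normalised replicate fold changes, kanamycin versus none.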

± gives the uncertainty stated by the source.

Take CGCAAGCAAUAUUACGCGAG: the “self-splicing fitness (ln)” value is -3.98 ± 0.31 (30 °C) and -2.43 ± 0.3 (37 °C).
For CGCAAGCAAUAUUACGCGCA, in that order: -1.1 ± 0.086 and -1.46 ± 0.13.
On the same counts, the results for CGCAAGCAAUAUUACGCGGG are -4.14 ± 0.42 and -2.31 ± 0.23.
As to CGCAAGCAAUAUUACGCUAA, the “self-splicing fitness (ln)” value is -2.42 ± 0.17 (30 °C) and -3.24 ± 0.33 (37 °C).
For CGCAAGCAAUAUUACGCUGA, in that order: -3.11 ± 0.26 and -2.01 ± 0.22.
For CGCAAGCAAUAUUACGGGUC, the “self-splicing fitness (ln)” value by setting is: (30 °C) -3.87 ± 0.23; (37 °C) -3.77 ± 0.28.
For the sequence CGCAAGCAAUAUUACGGGUG, the “self-splicing fitness (ln)” value is -1.59 ± 0.062 (30 °C) and -0.366 ± 0.08 (37 °C).
For CGCAAGCAAUAUUACGGUAC, in that order: -4.99 ± 0.45 and -3.6 ± 0.16.
With CGCAAGCAAUAUUACGGUCC, the “self-splicing fitness (ln)” value is, setting by setting: (30 °C) -1.07 ± 0.076; (37 °C) -0.628 ± 0.12.
For CGCAAGCAAUAUUACGGUGA, in that order: -0.78 ± 0.084 and -0.469 ± 0.091.
In the case of CGCAAGCAAUAUUACGUACU, the “self-splicing fitness (ln)” value is -1.64 ± 0.075 (30 °C) and -0.119 ± 0.096 (37 °C).
For CGCAAGCAAUAUUACGUAUA, in that order: -3.79 ± 0.44 and -3.01 ± 0.2.
For CGCAAGCAAUAUUACGUCUG, in that order: -1.13 ± 0.06 and -0.286 ± 0.075.
On the same counts, the results for CGCAAGCAAUAUUACGUUAA are -2.49 ± 0.18 and -2.62 ± 0.21.
As to CGCAAGCAAUAUUACGUUAC, the “self-splicing fitness (ln)” value reads like this: (30 °C) -4 ± 0.22; (37 °C) -3.23 ± 0.27.
For CGCAAGCAAUAUUACGUUGC, in that order: -3.41 ± 0.17 and -3.62 ± 0.29.
For CGCAAGCAAUAUUACGUUUA, in that order: -2.8 ± 0.12 and -1.98 ± 0.095.
As for CGCCAGCAAUAUUACGAAGC, the “self-splicing fitness (ln)” value (37 °C) is -1.71 ± 0.19.
For CGCCAGCAAUAUUACGACGU, the “self-splicing fitness (ln)” value was -1.71 ± 0.076 (30 °C) and -1.5 ± 0.094 (37 °C).
On to CGCCAGCAAUAUUACGCAGA, for which the “self-splicing fitness (ln)” value is, setting by setting: (30 °C) -3.57 ± 0.47; (37 °C) -2.53 ± 0.24.
For CGCCAGCAAUAUUACGCAUG, in that order: -0.241 ± 0.077 and -1.06 ± 0.1.
Regarding CGCCAGCAAUAUUACGCUCU, the “self-splicing fitness (ln)” value was -1.6 ± 0.081 (30 °C) and -1.06 ± 0.097 (37 °C).
On the same counts, the results for CGCCAGCAAUAUUACGGAAG are -1.44 ± 0.064 and -0.526 ± 0.077.
On to CGCCAGCAAUAUUACGGCGA, for which the “self-splicing fitness (ln)” value was -3.29 ± 0.23 (30 °C) and -1.84 ± 0.18 (37 °C).
For CGCCAGCAAUAUUACGGUGC, in that order: -3.5 ± 0.17 and -3.07 ± 0.3.
As to CGCCAGCAAUAUUACGGUUA, the “self-splicing fitness (ln)” value is -0.708 ± 0.055 (30 °C) and 0.0109 ± 0.058 (37 °C).
On the same counts, the results for CGCCAGCAAUAUUACGGUUC are -2.29 ± 0.11 and -1.54 ± 0.11.
Consider CGCCAGCAAUAUUACGUAAU, for which the “self-splicing fitness (ln)” value is -2.67 ± 0.12 (30 °C) and -1.71 ± 0.15 (37 °C).
Regarding CGCCAGCAAUAUUACGUAUU, the “self-splicing fitness (ln)” value by setting is: (30 °C) -3.2 ± 0.093; (37 °C) -2.71 ± 0.15.
On the same counts, the results for CGCCAGCAAUAUUACGUCGC are -3.23 ± 0.16 and -2.11 ± 0.2.
Take CGCCAGCAAUAUUACGUGGU: the “self-splicing fitness (ln)” value is -3.15 ± 0.18 (30 °C) and -3.22 ± 0.26 (37 °C).
On the same counts, the results for CGCCAGCAAUAUUACGUGUC are -3.34 ± 0.15 and -2.36 ± 0.14.
On the same counts, the results for CGCCAGCAAUAUUACGUUAC are -1.91 ± 0.22 and -3.49 ± 0.31.
As to CGCGAGCAAUAUUACGACUC, the “self-splicing fitness (ln)” value (37 °C) was -1.14 ± 0.31.
Regarding CGCGAGCAAUAUUACGAGGA, the “self-splicing fitness (ln)” value (30 °C) was -3.16 ± 0.22 and the “self-splicing fitness (ln)” value (37 °C) was -2.16 ± 0.18.
On the same counts, the results for CGCGAGCAAUAUUACGCAAG are -2.92 ± 0.27 and -2.91 ± 0.43.
For CGCGAGCAAUAUUACGCGAA, in that order: -3.88 ± 0.43 and -2.65 ± 0.23.
For CGCGAGCAAUAUUACGGAAG, in that order: -1.78 ± 0.17 and -2.32 ± 0.2.
Take CGCGAGCAAUAUUACGGAGA: the “self-splicing fitness (ln)” value reads like this: (30 °C) -2.25 ± 0.23; (37 °C) -2.3 ± 0.33.
For CGCGAGCAAUAUUACGGCAA, in that order: -4.21 ± 0.46 and -1.97 ± 0.28.
In the case of CGCGAGCAAUAUUACGUAAG, the “self-splicing fitness (ln)” value reads like this: (30 °C) -1.78 ± 0.096; (37 °C) -1.73 ± 0.12.
On the same counts, the results for CGCGAGCAAUAUUACGUAAU are -3.36 ± 0.27 and -3.23 ± 0.4.
CGCGAGCAAUAUUACGUACA: under “37 °C”, the “self-splicing fitness (ln)” value was -2.71 ± 0.43.
Take CGCGAGCAAUAUUACGUACG: the “self-splicing fitness (ln)” value is -2.6 ± 0.24 (30 °C) and -1.5 ± 0.27 (37 °C).
In the case of CGCGAGCAAUAUUACGUACU, the “self-splicing fitness (ln)” value was -3.32 ± 0.28 (30 °C) and -2.3 ± 0.31 (37 °C).
On the same counts, the results for CGCGAGCAAUAUUACGUAGG are -2.88 ± 0.14 and -0.445 ± 0.12.
On the same counts, the results for CGCGAGCAAUAUUACGUCCG are -2.81 ± 0.37 and 1.32 ± 0.29.
Take CGCGAGCAAUAUUACGUUAG: the “self-splicing fitness (ln)” value is -3.74 ± 0.21 (30 °C) and -1.33 ± 0.18 (37 °C).
Consider CGCGAGCAAUAUUACGUUGU, for which the “self-splicing fitness (ln)” value reads like this: (30 °C) -3.93 ± 0.28; (37 °C) -2.4 ± 0.36.
For CGCUAGCAAUAUUACGAAAU, the “self-splicing fitness (ln)” value runs as follows: (30 °C) -3.5 ± 0.22; (37 °C) -2.01 ± 0.2.
CGCUAGCAAUAUUACGAACU: the “self-splicing fitness (ln)” value (30 °C) was -0.352 ± 0.12 and the “self-splicing fitness (ln)” value (37 °C) was -0.0958 ± 0.14.
On to CGCUAGCAAUAUUACGAAUG, for which the “self-splicing fitness (ln)” value runs as follows: (30 °C) -1.33 ± 0.17; (37 °C) -0.192 ± 0.16.
Take CGCUAGCAAUAUUACGAGAA: the “self-splicing fitness (ln)” value (37 °C) was -1.99 ± 0.29.
Regarding CGCUAGCAAUAUUACGAGAG, the “self-splicing fitness (ln)” value was -3.41 ± 0.24 (30 °C) and -2.81 ± 0.38 (37 °C).
For CGCUAGCAAUAUUACGAGUC, in that order: -1.8 ± 0.13 and -1.01 ± 0.15.
For CGCUAGCAAUAUUACGAUUC, in that order: -3.29 ± 0.36 and -2.12 ± 0.21.
As to CGCUAGCAAUAUUACGCAAC, the “self-splicing fitness (ln)” value (37 °C) was -1.61 ± 0.49.
Regarding CGCUAGCAAUAUUACGCAUU, the “self-splicing fitness (ln)” value by setting is: (30 °C) -3.69 ± 0.28; (37 °C) -2.04 ± 0.27.
Take CGCUAGCAAUAUUACGCGUA: the “self-splicing fitness (ln)” value is -3.45 ± 0.37 (30 °C) and -1.45 ± 0.15 (37 °C).
On the same counts, the results for CGCUAGCAAUAUUACGCGUG are -2.8 ± 0.13 and -1.77 ± 0.12.
For CGCUAGCAAUAUUACGCUCU, in that order: -1.58 ± 0.1 and -0.837 ± 0.099.
Take CGCUAGCAAUAUUACGGCAC: the “self-splicing fitness (ln)” value is -1.9 ± 0.18 (30 °C) and 0.16 ± 0.19 (37 °C).
On the same counts, the results for CGCUAGCAAUAUUACGGCAG are -1.29 ± 0.082 and -0.703 ± 0.15.
In the case of CGCUAGCAAUAUUACGGCGC, the “self-splicing fitness (ln)” value (30 °C) was -1.1 ± 0.29.
Still for that read-out and setting: then CGCUAGCAAUAUUACGGCUA, with -1.91 ± 0.31.
CGCUAGCAAUAUUACGGUCU: the “self-splicing fitness (ln)” value was -1.02 ± 0.1 (30 °C) and -0.659 ± 0.12 (37 °C).
As for CGCUAGCAAUAUUACGUAUG, the “self-splicing fitness (ln)” value (30 °C) is -1.27 ± 0.066 and the “self-splicing fitness (ln)” value (37 °C) was -0.236 ± 0.09.
For CGCUAGCAAUAUUACGUCAU, in that order: -3.97 ± 0.35 and -1.25 ± 0.19.
On the same counts, the results for CGCUAGCAAUAUUACGUCCA are -1.49 ± 0.27 and -1.04 ± 0.29.
For CGCUAGCAAUAUUACGUCCG, in that order: -0.673 ± 0.092 and -0.4 ± 0.11.
Take CGGAAGCAAUAUUACGAUAU: the “self-splicing fitness (ln)” value (37 °C) is -2.82 ± 0.26.
Turning to CGGAAGCAAUAUUACGAUGU, the “self-splicing fitness (ln)” value is, setting by setting: (30 °C) -2.72 ± 0.19; (37 °C) -0.735 ± 0.14.
As to CGGAAGCAAUAUUACGAUUC, the “self-splicing fitness (ln)” value (30 °C) was -3.95 ± 0.43 and the “self-splicing fitness (ln)” value (37 °C) was -2.28 ± 0.45.
For the sequence CGGAAGCAAUAUUACGCAUU, the “self-splicing fitness (ln)” value is, setting by setting: (30 °C) -3.52 ± 0.3; (37 °C) -2.98 ± 0.29.
On the same counts, the results for CGGAAGCAAUAUUACGCCAU are -3.61 ± 0.34 and -2.84 ± 0.32.
In the case of CGGAAGCAAUAUUACGCGCG, the “self-splicing fitness (ln)” value runs as follows: (30 °C) -3.13 ± 0.33; (37 °C) -0.88 ± 0.24.
On to CGGAAGCAAUAUUACGCGGG, for which the “self-splicing fitness (ln)” value (30 °C) was -1.64 ± 0.16 and the “self-splicing fitness (ln)” value (37 °C) was -1.35 ± 0.18.
With CGGAAGCAAUAUUACGCUCU, the “self-splicing fitness (ln)” value (37 °C) was -1.81 ± 0.44.
